In patent publication US20030207791A1 (published 2003):

Tests used:
[1] = molecular target: the molecule itself; assay: gel filtration
[2] = molecular target: the molecule itself; assay: gel filtration and in vitro cross-linking of the purified domain

Protein	binding result [1]	binding result [2]
AML1-ETO (other, UniProt Q01196 1-177, looked up, The plasmid list names pcDNA3-myc-AML1-ETO; Also made in bacteria as an MBP fusion, MBP removed by factor Xa; also called myc-AML1-ETO) MRIPVDASTSRRFTPPSTALSPGKMSEALPLGAPDAGAALAGKLRSGDRSMVEVLADHPGELVRTDSPNFLCSVLPTHWRCNKTLPIAFKVVALGDVPDGTLVTVMAGNDENYSAELRNATAAMKNQVARFNDLRFVGRSGRGKSFTLTITVFTNPPQVATYHRAIKITVDGPREPRDRTEKHSTMPDSPVDVKTQSRLTPPTMPPPPTTQGAPRTSSFTPTTLTNGTSHSPTALNGAPSPPNGFSNGPSSSSSSSLANQQLPPACGARQLSKLKRFLTTLQQFGNDISPEIGERVRTLVLGLVNSTLTIEEFHSKLQEATNFPLRPFVIPFLKANLPLLQRELLHCARLAKQNPAQYLAQHEQLLLDASTTSPVDSSELLLDVNENGKRRTPDRTKENGFDREPLHSEHPSKRPCTISPGQRYSPNNGLSYQPNGLPHPTPPPPQHYRLDDMAIAHHYRDSYRHPSHRDLRDRNRPMGLHGTRQEEMIDHRLTDREWAEEWKHLDHLLNCIMDMVEKTRRSLTVLRRCQEADREELNYWIRRYSDAEDLKKGGGSSSSHSRQQSPVNPDPVALDAHREFLHRPASGYVPEEIWKKAEEAVNEVKRQAMTELQKAVSEAERKAHDMITTERAKMERTVAEAKRQAAEDALAVINQQEDSSESCWNCGRKASETCSGCNTARYCGSFCQHKDWEKHHHICGQTLQAQQQGDTPAVSSSVTPNSGAGSPMDTPPAATPRSTTPGTPSTIETTPR	binds	–
isolated coiled coil domain of PML (other, Expressed in BL21 as a GST fusion and freed by site-specific cleavage; also called CC; CC domain of PML) SELKCDISAEIQQRQEELDAMTQALQALQEQDSAEGAVHAQMHAAVGQLGRARAETEELIRERVRQVVAHVRAQERELLEAVDARYQRDYEEMASRLGRLDAVLQRIRTGSALVQRMKCYASDQEVLDMHGFLRQALCRLR	–	binds
